Laboratory results reported in the supplement of paper PMC11246515.
± gives the standard deviation of the averaged measurements.

Assay: total protein half-life in vivo (active degradation + dilution); higher = more stable protein
[1] = E. coli NCM3722 delta-clpP delta-lon delta-hslV, growth: N-lim chemostat, doubling time 6 h
[2] = E. coli NCM3722 delta-clpP, growth: N-lim chemostat, doubling time 6 h
[3] = E. coli NCM3722 delta-hslV, growth: N-lim chemostat, doubling time 6 h
[4] = E. coli NCM3722 delta-lon, growth: N-lim chemostat, doubling time 6 h
[5] = E. coli NCM3722 delta-smpB, growth: N-lim chemostat, doubling time 6 h
[6] = wild type E. coli NCM3722, growth: C-lim chemostat, doubling time 3 h
[7] = wild type E. coli NCM3722, growth: C-lim chemostat, doubling time 6 h
[8] = wild type E. coli NCM3722, growth: C-lim chemostat, doubling time 12 h
[9] = wild type E. coli NCM3722, growth: N-lim chemostat, doubling time 6 h
[10] = wild type E. coli NCM3722, growth: P-lim chemostat, doubling time 6 h
[11] = wild type E. coli NCM3722, growth: P-lim chemostat, doubling time 12 h
[12] = wild type E. coli NCM3722, growth: N-lim chemostat, doubling time 12 h

Row | Sequence | total protein half-life in vivo [1] [h] | total protein half-life in vivo [2] [h] | total protein half-life in vivo [3] [h] | total protein half-life in vivo [4] [h] | total protein half-life in vivo [5] [h] | total protein half-life in vivo [6] [h] | total protein half-life in vivo [7] [h] | total protein half-life in vivo [8] [h] | total protein half-life in vivo [9] [h] | total protein half-life in vivo [10] [h] | total protein half-life in vivo [11] [h] | total protein half-life in vivo [12] [h]
1 | MNKHTEHDTREHLLATGEQLCLQRGFTGMGLSELLKTAEVPKGSFYHYFRSKEAFGVAMLERHYAAYHQRLTELLQSGEGNYRDRILAYYQQTLNQFCQHGTISGCLTVKLSAEVCDLSEDMRSAMDKGARGVIALLSQALENGRENHCLTFCGEPLQQAQVLYALWLGANLQAKISRSFEPLENALAHVKNIIATPAV | 5.12 | 4.66 ± 0.51 | > 8 | 6.18 | 4.66 ± 0.14 | 3.13 ± 0.15 | 5.91 ± 0.12 | 11.7 | 7.06 | 5.25 | 12.7 | 
2 | MNKILLVDDDRELTSLLKELLEMEGFNVIVAHDGEQALDLLDDSIDLLLLDVMMPKKNGIDTLKALRQTHQTPVIMLTARGSELDRVLGLELGADDYLPKPFNDRELVARIRAILRRSHWSEQQQNNDNGSPTLEVDALVLNPGRQEASFDGQTLELTGTEFTLLYLLAQHLGQVVSREHLSQEVLGKRLTPFDRAIDMHISNLRRKLPDRKDGHPWFKTLRGRGYLMVSAS [P0AE88] | 5.73 ± 0.89 | 4.96 ± 0.36 | 4.848 ± 0.016 |  | 5.11 ± 0.091 | 3.28 ± 0.5 | 5.44 ± 0.21 | 11.4 ± 0.69 | 6 ± 1.4 | 6.01 ± 0.11 | 10.9 ± 0.17 | 8.76 ± 0.57
3 | MNKKIHSLALLVNLGIYGVAQAQEPTDTPVSHDDTIVVTAAEQNLQAPGVSTITADEIRKNPVARDVSKIIRTMPGVNLTGNSTSGQRGNNRQIDIRGMGPENTLILIDGKPVSSRNSVRQGWRGERDTRGDTSWVPPEMIERIEVLRGPAAARYGNGAAGGVVNIITKKGSGEWHGSWDAYFNAPEHKEEGATKRTNFSLTGPLGDEFSFRLYGNLDKTQADAWDINQGHQSARAGTYATTLPAGREGVINKDINGVVRWDFAPLQSLELEAGYSRQGNLYAGDTQNTNSDSYTRSKYGDETNRLYRQNYALTWNGGWDNGVTTSNWVQYEHTRNSRIPEGLAGGTEGKFNEKATQDFVDIDLDDVMLHSEVNLPIDFLVNQTLTLGTEWNQQRMKDLSSNTQALTGTNTGGAIDGVSTTDRSPYSKAEIFSLFAENNMELTDSTIVTPGLRFDHHSIVGNNWSPALNISQGLGDDFTLKMGIARAYKAPSLYQTNPNYILYSKGQGCYASAGGCYLQGNDDLKAETSINKEIGLEFKRDGWLAGVTWFRNDYRNKIEAGYVAVGQNAVGTDLYQWDNVPKAVVEGLEGSLNVPVSETVMWTNNITYMLKSENKTTGDRLSIIPEYTLNSTLSWQAREDLSMQTTFTWYGKQQPKKYNYKGQPAVGPETKEISPYSIVGLSATWDVTKNVSLTGGVDNLFDKRLWRAGNAQTTGDLAGANYIAGAGAYTYNEPGRTWYMSVNTHF |  | 5.83 |  |  |  | 3.068 ± 0.0056 | 7.39 ± 0.36 | 14.5 ± 2.1 | 6.97 | 6.6 | 12.3 | 
4 | MNKRDAINHIRQFGGRLDRFRKSVGGSGDGGRNAPKRAKSSPKPVNRKTNVFNEQVRYAFHGALQDLKSKPFATFLTVMVIAISLTLPSVCYMVYKNVNQAATQYYPSPQITVYLQKTLDDDAAAGVVAQLQAEQGVEKVNYLSREDALGEFRNWSGFGGALDMLEENPLPAVAVVIPKLDFQGTESLNTLRDRITQINGIDEVRMDDSWFARLAALTGLVGRVSAMIGVLMVAAVFLVIGNSVRLSIFARRDSINVQKLIGATDGFILRPFLYGGALLGFSGALLSLILSEILVLRLSSAVAEVAQVFGTKFDINGLSFDECLLLLLVCSMIGWVAAWLATVQHLRHFTPE [P0AC30] | 6.31 ± 0.59 | 6.43 ± 0.28 | 6.04 ± 0.071 | 6.55 ± 0.64 | 6.02 ± 0.32 | 3.17 ± 0.15 | 5.86 ± 0.36 | 12.5 ± 2.4 | 6.42 ± 0.099 | 5.99 ± 0.82 | 13.5 ± 1.3 | 12.3 ± 1.8
5 | MNKSGKYLVWTVLSVMGAFALGYIALNRGEQINALWIVVASVCIYLIAYRFYGLYIAKNVLAVDPTRMTPAVRHNDGLDYVPTDKKVLFGHHFAAIAGAGPLVGPVLAAQMGYLPGMIWLLAGVVLAGAVQDFMVLFVSTRRDGRSLGELVKEEMGPTAGVIALVACFMIMVIILAVLAMIVVKALTHSPWGTYTVAFTIPLALFMGIYLRYLRPGRIGEVSVIGLVFLIFAIISGGWVAESPTWAPYFDFTGVQLTWMLVGYGFVAAVLPVWLLLAPRDYLSTFLKIGTIVGLAVGILIMRPTLTMPALTKFVDGTGPVWTGNLFPFLFITIACGAVSGFHALISSGTTPKMLANEGQACFIGYGGMLMESFVAIMALVSACIIDPGVYFAMNSPMAVLAPAGTADVVASAAQVVSSWGFSITPDTLNQIASEVGEQSIISRAGGAPTLAVGMAYILHGALGGMMDVAFWYHFAILFEALFILTAVDAGTRAARFMLQDLLGVVSPGLKRTDSLPANLLATALCVLAWGYFLHQGVVDPLGGINTLWPLFGIANQMLAGMALMLCAVVLFKMKRQRYAWVALVPTAWLLICTLTAGWQKAFSPDAKVGFLAIANKFQAMIDSGNIPSQYTESQLAQLVFNNRLDAGLTIFFMVVVVVLALFSIKTALAALKDPKPTAKETPYEPMPENVEEIVAQAKGAH | 5.72 | 4.33 | 4.49 ± 0.2 |  | 4.96 ± 1.1 | 3.36 ± 0.37 | 5.34 ± 0.24 | 11.7 ± 0.39 | 5.33 ± 0.76 | 5.517 ± 0.042 | 10.3 ± 0.19 | 
6 | MNKSLVAVGVIVALGVVWTGGAWYTGKKIETHLEDMVAQANAQLKLTAPESNLEVSYQNYHRGVFSSQLQLLVKPIAGKENPWIKSGQSVIFNESVDHGPFPLAQLKKLNLIPSMASIQTTLVNNEVSKPLFDMAKGETPFEINSRIGYSGDSSSDISLKPLNYEQKDEKVAFSGGEFQLNADRDGKAISLSGEAQSGRIDAVNEYNQKVQLTFNNLKTDGSSTLASFGERVGNQKLSLEKMTISVEGKELALLEGMEISGKSDLVNDGKTINSQLDYSLNSLKVQNQDLGSGKLTLKVGQIDGEAWHQFSQQYNAQTQALLAQPEIANNPELYQEKVTEAFFSALPLMLKGDPVITIAPLSWKNSQGESALNLSLFLKDPATTKEAPQTLAQEVDRSVKSLDAKLTIPVDMATEFMTQVAKLEGYQEDQAKKLAKQQVEGASAMGQMFRLTTLQDNTITTSLQYANGQITLNGQKMSLEDFVGMFAMPALNVPAVPAIPQQ | 6.64 ± 0.32 | 6.77 ± 0.68 | 6.24 ± 0.28 | 6.136 ± 0.016 | 6 ± 0.23 | 3.14 ± 0.049 | 5.99 ± 0.08 | 11.8 ± 1.2 | 6.21 ± 0.15 | 5.98 ± 0.13 | 12.9 ± 0.87 | 13.15 ± 0.042
7 | MNKSMLAGIGIGVAAALGVAAVASLNVFERGPQYAQVVSATPIKETVKTPRQECRNVTVTHRRPVQDENRITGSVLGAVAGGVIGHQFGGGRGKDVATVVGALGGGYAGNQIQGSLQESDTYTTTQQRCKTVYDKSEKMLGYDVTYKIGDQQGKIRMDRDPGTQIPLDSNGQLILNNKV [P0AB35] | 0.776 ± 0.14 | 0.716 |  |  | 0.623 | 0.834 |  |  | 0.945 | 0.416 | 1.21 | 
